# B1: 1044 (protein, listed as Streptomyces sp.)
# chain: MHETHPRRGGMTRRSVLAAGLTTGVLAALGPAAEAAASPAASPAASPAASASAGATPTASWFAAPARAVRPKFRWWWPDGLVDPAEIAREIDQMADAGFGGAEIAAVHHSISDTSVLDTAHHGWGSAPWRDGVKAALRQAARRGLTVDLTLGPSWPVAVPGVTPDDEAAVKELAYGKATLTGGAAFDGPVPAPVYAPASGVTVQKLFAVQAARVDTAYSSGKATGLDVDSVTDLTNRVADGNLRWTPPDSGTWVVLSYWQRGSGQQPEAGPHSSPAAYVIDHFSAAGTAAVTRYWDTAILDSTLRKLLKAAGGAFFEDSVELESKGLQWTPGLPDAFRAHTGRDLLPYLPAVILDNSNQVFAFEARLTQEIRHDFWETVSNLFNEHHLGALKKWAHGHGMKLRSQPYGLQTDAIASAAVLDIPEGESLGFKNLDDYRCLAGGRDMAGSRVLSCESGAYAGGAYNTTWDKFLRTMGGAYAAGVNQTVIHGFSYATAPGVSWPGFAAFSPYSGAPGYGESWGPRQPTWHHVADVAGYIGRVQQVLQSGTVRADVAVFRQTGYTATGIGASWLTSTGVPLGWTHQFLSGPLLDLPNAKVSGKRLAPDGPAYKALFLEGDFFYGSTPTLSVDDAHKLLKFARAGLPTVLLGAFGQALTPGLPDDGETDELRALTAELLALPNVRNVTDKTLVGAAFAELGVTSDVSYSVSSTLLNAHRVTDDADFYYLCNGKHAETVKPPVAAIDHDVTLRSTVRGGAGTVPYLLDPWSGRVTRLARYTRDGDAFTFRVTLQPGETLVVALGRPGLFGNRDGNRPHAVATDADEALFTGGRLAVRASAAGTFTTTLSTGRKVTTKVAEVPAAVTPDRWTLSVDDWRPGADATSTEVVRHSLTLDALLPWSQIPELADVGGIGTYRTTVTLPKSWSSATGALLRLGSVTDTCRVTVNGVRLDPVDRVNPVVDLGGRLRKGANTLEIEVATPLFNRLRVSNPAVFGTAARQAYGLVGPVQLVPYVQRTVA
# B2: 1030 (protein, listed as Lactobacillus crispatus)
# chain: MKLVRIEVNHMETPIGFNLDNHLHLVGFLDGPVTSKLQRKLIIKAHDKEIVTFDWENADNLIFDFPINLTARTRYEVEMSVKNDREMSTATTYFETGQIDETLKGKWIGTEHKDLHSIILYKKFTTKDVKKARLYISGLGLFEAYLDGNKIGNEFLTPGFTDYNYDLQIESYDLTTELLKSGEHTLAIMLGDGWYRGKLGLKVHGGQPNNYGDQLMAIADLRINDDQQIIVTDKSWQVTTSPITHSGIYYGEDLDDNRQLNELANAIELTSPTKHLVDRQSLPIQRHEQFSVKEIIKTPSGATVLDFGQNMAGWLEFKNTIPKGEKVSIEFGEIMLDGEFYRDNLRSARAQFTYVSDGKEKWVRPHFTYFGFRYVKLNDFEGEIDPNNFRAVALYSNMIETGEIITNNSDVNRLFENVKWGQKSNFIDIPTDCPQRDERLGWTGDAAIFSKTASYNMDTYQFLKKYAYDIAVEQSKNNGFVPLYVPAVDTKDGGKAVWSDAATIIPWIAYKRTGDLAILRQNIGAMMSWVDWIHDRAVSHGQEYLWLGDDQLGDWLALDTEDIMKLKGKTPDDLIASAYYYYSAKLVSQSAETLNMKHEKQYYGQLAKLIKHAFINHFFTKDGLSIADTQTGLALCLSFKLYPANAKDNLINKLVEKVEVNQNHLNTGFVGTPLLLPALTDNGQQDLALRLFLNTDFPSWLFEVKNGATTIWERWNSVDSEGHIAQNGMNSLNHYSSGAVMEWAYEDLLGLKQNGNDAVFKPMLTAKLNQISGQIALPTGIVKVAWHIKSSKLIHLEMDIPYGSHLKLILPKHEQDIPTIFKSGHYELDVEVINPIVEAFDVHTPLAEYRNQTSLTKKLSELVPFWGFLAMPGNMDHFAKYSLLQLSREMRGIGFKPFTQEDIEKINQLFKEYHFKGAEK
# B3: 1006 (protein, listed as Geobacillus sp.)
# chain: MAAIKATDLRTEGILNPFGLDAERPRLSWSFGQPAGAGSGQSAYRIAVASSEERLKLGEPDVWDSGIVRSCEHVSIPYEGASLMPRRRYYWHVTAWDGQGQPAVSKAAWWETGLLAEAKWSERWIGDAAEAADRGPMIQLRKSFEVKKPVARARAYVTGLGHYELRLNGAKVGDRQLEPGWTNYDKTVLYSVYDVTPGLRQGENAVGVLLGNGFYRVAGGRYAKFKGSFGNPKCLAELVIEYADGTAETIVTDGTWSLSDSPLTFSCIYGGEDYDAGLERTGWDGPGFVEDGDWRRACELEPPPGKLTAQSSPPLAITKRLPARSVSEPRRGVYVYDLGQNFSGWPCIRVSGPNGTRVKLKPAELLTEEGLANQKYSGSPYELNYVLKGEGIEEWHPRFTYYGFRYVQVEGAAPAGEGVEESDLPVLHGLEGHMIGPDVEDAGGFRCSDPLLNRIHEIINWAILSNMKSVFTDCPHREKLGWLEQLHLMGPSVMFNYECEALLEKIMRDMSDAQLPNGMVPTTAPEYVVFEEPWHMFRDAAAWGGSYILLAWEMLRRYGSVGTLERHYEGMGRYVHYLTEASDGFILRGGLGDWYDIGPKGPGFAQNTSVALVETAIFFGLARALGEIALVLGKAEDASAHSRLSESIRTAFHSAFYDTANAMYAEGSDTAIAMPLAIGLAPEELRGVLLDRLVRNIGERGWQTTAGDVGHRYVLSALASGGRSDVVGKMARNPHAPGYAYQVAHGATSLTEAWDGPTVGKSQNHFMLGHLEEWLYASLAGLDYRYRPEVGRYLVKAKPTVVQGVEWAEAWQQLRSGRASVRWELGPSNQMTVRVDIPANSEGLIRIPSSPDTPVLASGPDVAYEGHEDGHAVYRSGPGSYCFTFAANHRTTEMERERM
# B4: 1081 (protein)
# chain: MKNSNLFAKLLAVVLIFLSNPTLAVEWTAEWIWSKERFTDPNSWVVIRKEVNLESVGQNSTAYISADTKYWLWINGQLVVFEGSYTGGPSPVKPSPRVDFYPIASNKYYDQVDIGRYLKKGKNTIAALAWYYGDNGQKGTYISSNTGGFIFQAHVGDNVIATDSSWKVLPHPAYDKKVIKKSPYRVAAWSVKYDARKDLNDWSNKAWYMPGYDDSDWQTPRIKRQPPRPPFFGLYPSEIPPLNNYGLANCENYPESKFPFISDGKTIKCKLDFNKNFTPYFDIEAKAGQQIHIKSNMRLNTIETFYTTKAGRQQFESYSWLNGRIIEYRIPKGVKVHGLKYRWTGVGTTPGHFEADDAWYSRIWQMAENTLYICARDNFMDTPDRERGLWIGDVADQASYLFYSMDKPGRDLLKKAIKVTLAFSDSESGIFAGLGPGRFRELPAQSLQFIEQGIWHYYYNTGDLETLKFAYPYVHRYLTLWGIKDNGLATFRTGDWKWTDWGPQDTIDYDVIQNALYYSALVSARKMAKAVGDYTHIGLYSHRINSIKQAYQKHYWQNGYFSSNPNKFKDDRANAIAILFGLAKPEQYQQIVDNVLIPNHFASPHFEWMVYNAMAIAGRYEDALQRMKTRYAKQVDNQALSTLAEYLPSGGTENHAWNAPSTVLSQHIAGIAPTSVAWESYQVMPNMAHFKRVKQFVPSVQGDIDFEIQRDQQTVKIEIDSPENTTAIIGVPKQYFAIQTIMVNGKKLWENGQLTASISGIKLAGEDNKYVKFEVQPGHWLVTAQR
# modifications: Catenovulum agarivorans
# Test: Experiment 6-1: specificity of rhamnosidases towards other rhamnose residues (C3 saccharide rhamnose, C28 saccharide rhamnose)
# Type: biochemical, Quillaja saponaria
# Settings: TBE 2%, pH 7.5, 30 degC, 18 h; LCMS/MS; negative controls 0.18, 0.17
row,Molecule,ratio PP/QS-21
1,B1,0.16
2,B2,0.17
3,B3,0.18
4,B4,0.17

# Test: Experiment 6-1: screening of rhamnosidases for derhamnosylation of saponins in treated bark extract (2%), QS-17 2296 to QS-18 2150 (PAR %)
# Type: biochemical, Quillaja saponaria
# Settings: TBE 2%, pH 7.5, 30 degC, 18 h; TIC peak area ratio percent of rhamnosylated starting saponin to derhamnosylated product, LCMS/MS; negative controls 4.876, 5.225
row,Molecule,QS-17 (PAR %) [%]
1,B1,5.370
2,B2,5.315
3,B3,5.339
4,B4,5.348

# Test: Experiment 6-1: screening of rhamnosidases for derhamnosylation of saponins in treated bark extract (2%), desglucosyl-QS-17 2134 to QS-21 1988 (PAR %)
# Type: biochemical, Quillaja saponaria
# Settings: TBE 2%, pH 7.5, 30 degC, 18 h; TIC peak area ratio percent, LCMS/MS; negative controls 2.719, 2.158
row,Molecule,Peak75 (PAR %) [%]
1,B1,2.274
2,B2,2.127
3,B3,2.645
4,B4,2.473

# Test: Experiment 6-1: screening of rhamnosidases for derhamnosylation of saponins in treated bark extract (2%), QS-17 2310 to QS-18 2164 (PAR %)
# Type: biochemical, Quillaja saponaria
# Settings: TBE 2%, pH 7.5, 30 degC, 18 h; TIC peak area ratio percent, LCMS/MS; negative controls 3.061, 2.429
row,Molecule,Peak57 (PAR %) [%]
1,B1,3.156
2,B2,3.621
3,B3,3.237
4,B4,2.624
